First the molecules themselves.
B1: Hairpin Ribozyme (parent)
chain: GUCCUCUUUCACGUGCGCGUGAAAGAGAGAAGUGAACCAGAGAAACACACGUUGUGGUAUAUUACCUGGUA

The data set covers variants of B1. Kind of data set: self-cleavage, relative activity (ratio to wild type); higher = more cleavage; co-transcriptional.
Regarding GUCCUCUUUCACGUGCGCGUGAAAGAUAGAAGUGAACCAGAGAUACACACGUUGUGGUAUAUUACCUGGUA [G27U A44U], the self-cleavage came to 0.169.

As for GUCCUCUUUCACGUGCGCGUGAAAGAUAGAAGUGAACCAGAGAAACACAAGUUGUGGUAUAUUACCUGGUA [G27U C50A], the self-cleavage amounted to 0.155. Consider GUCCUCUUUCACGUGCGCGUGAAAGAUAGAAGUGAACCAGAGAAACACACGUUGUGGAAUAUUACCUGGUA [G27U U58A], for which the self-cleavage worked out at 0.153. With GUCCUCUUUCACGUGCGCGUGAAAGAUAGAAGUGAACCAGAGAAACACACGUUGUGGGAUAUUACCUGGUA [G27U U58G], the self-cleavage is 0.225. Consider GUCCUCUUUCACGUGCGCGUGAAAGAUAGAAGUGAACCAGAGGAACACACGUUGUGGUAUAUUACCUGGUA [G27U A43G], for which the self-cleavage stood at 0.169. For the variant GUCCUCUUUCACGUGCGCGUGAAAGAUAGAAGUGAACCAGAGCAACACACGUUGUGGUAUAUUACCUGGUA [G27U A43C], the self-cleavage is 0.0898. On to GUCCUCUUUCACGUGCGCGUGAAAGACAGAAGUGAACCAGAGAAACACACGUUGUGGGAUAUUACCUGGUA [G27C U58G], for which the self-cleavage amounted to 0.188. With GUCCUCUUUCACGUGCGCGUGAAAGACAGAAGUGAACCAGAGAAACACACGUUGUGGAAUAUUACCUGGUA [G27C U58A], the self-cleavage came out at 0.123. In the case of GUCCUCUUUCACGUGCGCGUGAAAGAUAGAAUUGAACCAGAGAAACACACGUUGUGGUAUAUUACCUGGUA [G27U G32U], the self-cleavage was found to be 0.211. Then GUCCUCUUUCACGUGCGCGUGAAAGAUAGAAAUGAACCAGAGAAACACACGUUGUGGUAUAUUACCUGGUA [G27U G32A], with 0.104; and GUCCUCUUUCACGUGCGCGUGAAAGAUAGAAGGGAACCAGAGAAACACACGUUGUGGUAUAUUACCUGGUA [G27U U33G], with 0.145.

On to GUCCUCUUUCACGUGCGCGUGAAAGAUAGAAGUGAACCAGAGAAAAACACGUUGUGGUAUAUUACCUGGUA [G27U C46A], for which the self-cleavage amounted to 0.13. GUCCUCUUUCACGUGCGCGUGAAAGAUAGAAGUGAACCAGAGAAAGACACGUUGUGGUAUAUUACCUGGUA [G27U C46G]: the self-cleavage is 0.0944. Next, GUCCUCUUUCACGUGCGCGUGAAAGAUAGGAGUGAACCAGAGAAACACACGUUGUGGUAUAUUACCUGGUA [G27U A30G]: 0.0852; GUCCUCUUUCACGUGCGCGUGAAAGAUAUAAGUGAACCAGAGAAACACACGUUGUGGUAUAUUACCUGGUA [G27U G29U]: 0.119. As to GUCCUCUUUCACGUGCGCGUGAAAGAUACAAGUGAACCAGAGAAACACACGUUGUGGUAUAUUACCUGGUA [G27U G29C], the self-cleavage worked out at 0.101. Regarding GUCCUCUUUCACGUGCGCGUGAAAGAUAAAAGUGAACCAGAGAAACACACGUUGUGGUAUAUUACCUGGUA [G27U G29A], the self-cleavage was 0.225. Then GUCCUCUUUCACGUGCGCGUGAAAGAUAGAAGUGAACCAGAGAAACACACGUUGUGCUAUAUUACCUGGUA [G27U G57C], with 0.159; and GUCCUCUUUCACGUGCGCGUGAAAGAUAGAAGUGAACCAUAGAAACACACGUUGUGGUAUAUUACCUGGUA [G27U G40U], with 0.0783; and GUCCUCUUUCACGUGCGCGUGAAAGAUAGAAGUGAACCACAGAAACACACGUUGUGGUAUAUUACCUGGUA [G27U G40C], with 0.0532. As for GUCCUCUUUCACGUGCGCGUGAAAGAUAGAAGUGAACCAGAGAAACACACGUUGUGGUAUAUUACCUGGUC [G27U A71C], the self-cleavage came out at 0.904. Then GUCCUCUUUCACGUGCGCGUGAAAGAUAGAAGUGAACCAGAGAAACACCCGUUGUGGUAUAUUACCUGGUA [G27U A49C], with 0.225; and GUCCUCUUUCACGUGCGCGUGAAAGAUAGAAGUGAACCAGAGAAACACACGUUGUGGUGUAUUACCUGGUA [G27U A59G], with 0.209; and GUCCUCUUUCACGUGCGCGUGAAAGAUAGAAGUGAACCAGAGAAACACACGUUGUGGUCUAUUACCUGGUA [G27U A59C], with 0.0836.

Consider GUCCUCUUUCACGUGCGCGUGAAAGAUAGAAGUGAAACAGAGAAACACACGUUGUGGUAUAUUACCUGGUA [G27U C37A], for which the self-cleavage is 0.108. With GUCCUCUUUCACGUGCGCGUGAAAGACAGAAGUGAAUCAGAGAAACACACGUUGUGGUAUAUUACCUGGUA [G27C C37U], the self-cleavage is 0.0764. Turning to GUCCUCUUUCACGUGCGCGUGAAAGACAGAAGUGAAGCAGAGAAACACACGUUGUGGUAUAUUACCUGGUA [G27C C37G], the self-cleavage was 0.239. Then GUCCUCUUUCACGUGCGCGUGAAAGAUAGAAGUGAACCAGAGAAACACACAUUGUGGUAUAUUACCUGGUA [G27U G51A], with 0.307; and GUCCUCUUUCACGUGCGCGUGAAAGACAGAAGUGAACCAGAGAAACACACGUUGUGGUAUAUGACCUGGUA [G27C U63G], with 0.101; and GUCCUCUUUCACGUGCGCGUGAAAGACAGAAGUGAACCAGAGAAACACAAGUUGUGGUAUAUUACCUGGUA [G27C C50A], with 0.242. In the case of GUCCUCUUUCACGUGCGCGUGAAAGACAGAAGUGAACCAGAGAAAUACACGUUGUGGUAUAUUACCUGGUA [G27C C46U], the self-cleavage is 0.106.

For GUCCUCUUUCACGUGCGCGUGAAAGACAGAAGUGAACCAGAGAAACACACGUUGUGGUAUGUUACCUGGUA [G27C A61G], the self-cleavage worked out at 0.237.

On to GUCCUCUUUCACGUGCGCGUGAAAGACAGAAGUGAACCAGAGAAACACACGUUGUGGUAUCUUACCUGGUA [G27C A61C], for which the self-cleavage came to 0.0843. Turning to GUCCUCUUUCACGUGCGCGUGAAAGAUAGAAGUGAACUAGAGAAACACACGUUGUGGUAUAUUACCUGGUA [G27U C38U], the self-cleavage worked out at 0.157.

As to GUCCUCUUUCACGUGCGCGUGAAAGAUAGAAGUGAACCAGAGAAACACACGUUGUGGUAUAAUACCUGGUA [G27U U62A], the self-cleavage was determined as 0.137. Take GUCCUCUUUCACGUGCGCGUGAAAGAUCGAAGUGAACCAGAGAAACACACGUUGUGGUAUAUUACCUGGUA [G27U A28C]: the self-cleavage was found to be 0.179.

Take GUCCUCUUUCACGUGCGCGUGAAAGAUAGAAGUAAACCAGAGAAACACACGUUGUGGUAUAUUACCUGGUA [G27U G34A]: the self-cleavage came out at 0.282. With GUCCUCUUUCACGUGCGCGUGAAAGAUAGAAGUUAACCAGAGAAACACACGUUGUGGUAUAUUACCUGGUA [G27U G34U], the self-cleavage came out at 1.15.
